Reference: the supplement of paper PMC12042874
± gives the uncertainty stated by the source.

Experiment: amyloid nucleation score (Sup35N fusion, yeast selection) (log enrichment); library NNK2; higher = more nucleation; inactive = no reads after selection
Procedure, shortened: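 Yeast lacking psi expressed peptides of 20 random codons fused to Sup35N, received 100 μM copper sulfate for 24 hours, and were then grown for 7 days at 30°C on medium lacking adenine and uracil. Illumina sequencing of input and output plasmid inserts provided the reads. Nucleation scores are DiMSum log enrichments of output over input, centred on the mode of non-aggregating sequences. Any sequence with under 100 input reads was excluded.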

| Substance | amyloid nucleation score |
| --- | --- |
| YELHRNAIPRRRSQDSL | -0.81 ± 0.39 |
| FGIMNMKYGYTCMMSSSKSS | -1.43 ± 1.1 |
| TCRHRLHVSFVYDVLRQIVT | 0.043 ± 0.21 |
| NLPLL | -0.027 ± 0.54 |
| NFIVW | -0.417 ± 0.64 |
| NFTIHTWVYMHRVNPPGILN | inactive |
| NMPFYRFAKRTWFRNPQSFV | -1.19 ± 1 |
| SRSVEGLKLWATNSAGHVVA | 0.958 ± 0.3 |
| NIVLTLSRGF | 2.56 ± 0.1 |
| WTPVDVLCMIGMRSVCYINM | 1.79 ± 0.1 |
| AYSGIFTRNAEVYSDIYLQ | -0.499 ± 0.76 |
| ICLVRWDMKSRVDGTSGM | 5.194 ± 0.037 |
| GVPDCLLCVNSIYQGSLSFG | 5.24 ± 0.09 |
| RTYWGRKLNCVQF | 6.716 ± 0.04 |
| DINSQEVCSVTELGR | -0.247 ± 0.45 |
| AGHWLCLVTNFVVRGGDKLF | 2.76 ± 0.13 |
| AALNDNTSL | 5.71 ± 0.079 |
| VLYSRVLDGRESTNLGRL | inactive |
| AEYIWWMVPVMKELVNEV | 0.362 ± 0.38 |
| WVHVNSCELDSPGKAWGDTG | 1.11 ± 0.32 |
| LSLLVSLTRTMFNLNNTCTA | -0.17 ± 0.65 |
| GVVEYRNFADSIVYGSRKFK | -0.685 ± 0.76 |
| VLYHFEISA | -0.011 ± 0.54 |
| TCFEEFLQKFMYCATFMKKM | -0.403 ± 0.78 |
| YRRRSKHAVNKGRMCA | 1.3 ± 0.28 |
| ASVILTEPFMQGFSIYVGAG | -0.746 ± 0.49 |

| Substance | amyloid nucleation score |
| --- | --- |
| LKLCLRCSNIVLPD | -0.434 ± 0.3 |
| VGRVHSLSDYCDFGKSWFKY | -0.864 ± 0.74 |
| CGNPFGLSTHFNYLRRMPWE | 0.116 ± 0.25 |
| FTASFFP | 0.05 ± 0.26 |
| VYVSYVAIFLPEPLVCDNVE | 7.192 ± 0.04 |
| YGRPIIVMYKLLRQNSSSRL | -0.496 ± 0.48 |
| YNKLRPGATCHLETWS | -0.614 ± 0.79 |
| NYTWGEIYGH | -1.2 ± 0.79 |
| GISRGLILEVTC | 1.12 ± 0.43 |
| GTKKARSGARQCLGWEILWM | 0.516 ± 0.43 |
| KNKSFNMACPVLVYGGFLIR | inactive |
| WCTLFFQCRRPG | 5.554 ± 0.049 |
| VSMGNGARH | 0.194 ± 0.2 |
| YNTVVVPDVMTGRF | -0.599 ± 1 |
| MSSMCNLFRYMFKLYVRSWV | -0.681 ± 0.3 |
| GVHISRVVCQN | 0.265 ± 1.1 |
| LSPLIAAHSTERVYWY | 0.262 ± 0.46 |
| STWWWYLCIQARLMCMRFLA | -0.357 ± 0.23 |
| PSSGPPNESAMSPITYSGEG | -0.684 ± 1.1 |
| MIVVCVRLYQGRYGRMPDYE | -0.16 ± 0.37 |
| VVSTESVNVI | 0.889 ± 0.27 |
| VTTVRSPILLTLRTVPF | 0.425 ± 0.38 |
| SVTVHFENVVDIRYVCVTMG | 0.341 ± 0.65 |
| ASLAEKGL | -0.497 ± 0.38 |
| RRSSD | 1.2 ± 0.3 |
| AQISVSYGIWDSCTC | 8.773 ± 0.032 |

| Substance | amyloid nucleation score |
| --- | --- |
| YIVCLMESIRI | 3.2 ± 0.17 |
| YCLSDKWTLCG | 0.367 ± 0.41 |
| MMWLSARMQR | 6.727 ± 0.049 |
| VVLFWLNCRRVYFLGSKYRA | 0.331 ± 0.8 |
| CKALCIKIWVERVTC | 2.31 ± 0.16 |
| LINEFNAKNQSVRIFPVSEK | -0.645 ± 0.64 |
| SSYRINPRKPLR | 0.028 ± 0.63 |
| FYRHCFVVTNKRAPSKSRSK | 4.61 ± 0.11 |
| KSETAVRVNGYGAKIQE | -0.224 ± 0.79 |
| ILSQPEEGLGGTKSSFCVVF | -0.363 ± 1.1 |
| KNIPFRMYWS | 2.6 ± 0.075 |
| FRSFRRIILSFYEVNFGSII | inactive |
| FDQLPRVFNYRLAILWAVYR | -0.627 ± 0.79 |
| VKNFYVNIFQCGIPPPFKEM | 7.668 ± 0.026 |
| PSSFNSRFFCLVTNGWQYMS | inactive |
| FLSYYFGPFRELVF | -0.287 ± 0.56 |
| VSLLWYHFGWLLDCFWYRWS | 0.429 ± 0.8 |
| RTMFNLHADCERNLFWFGGW | 5.13 ± 0.065 |
| SDFIAGVKLSRNFDGRG | -0.097 ± 1.1 |
| ADWMFRFMKERRQMVWNTRI | 0.044 ± 1.1 |
| SLLWFKTVSLLRYNQF | -0.363 ± 0.65 |
| VCVLGIGT | inactive |
| MQAMRRGQKYKSGRVIYVRG | -0.554 ± 0.63 |
| VLFDGKPMEVFFWCLPEWVF | inactive |
| VGYSEMGVADLGHGGW | 1.15 ± 0.31 |
| GLVNSTPRKRKLFKGDAVHS | 0.321 ± 0.48 |

| Substance | amyloid nucleation score |
| --- | --- |
| GRHQVIGMWCSRLFPLVRRS | 0.375 ± 0.56 |
| ESISTVITLRGLMLITTGYN | 4.12 ± 0.097 |
| TTSQFGLGGICPDNSTGLLA | -1.31 ± 1 |
| SVSVEYWCSLWDRRDKGSSQ | 0.619 ± 0.81 |
| IINWPQLFKVASWTPSKTPP | -0.07 ± 0.76 |
| YRLFSRWAVVRFMGVGSLSF | -0.691 ± 0.56 |
| GTPRFEVNIMFHTVDS | 1.57 ± 0.22 |
| DNMDFMMCKINSGLNLTLSS | -2.33 ± 0.62 |
| TLLDNRRGCVMSWRGFLWMR | -0.363 ± 0.65 |
| RRIIQCSDEFVLYQCNMLRC | 0.759 ± 0.41 |
| TMFEGFRCLRR | 0.923 ± 0.81 |
| FCLFQRDKTHSVWMGLKKFQ | -1.06 ± 0.78 |
| VLVTRIEWMGESTCMSLVNY | 2.69 ± 0.12 |
| CQGHQWSYRPVP | 0.684 ± 0.35 |
| ACRAICVPKGVGYWFCVTSE | 0.54 ± 0.51 |
| RNTNSANVKSCSMVRNRVWC | 0.604 ± 0.66 |
| HNYGNPWE | 3 ± 0.12 |
| CEGCHATKYRVRSWS | 1.01 ± 0.31 |
| GFYYRRSMESGNTFSGCSTA | -0.776 ± 0.62 |
| IERHIYGMSDAVLGVD | -0.493 ± 1.1 |
| QLGRVSHRVTDRIFWKAYPA | 0.353 ± 0.35 |
| SDGSGNGEWSEMQVLWTRSN | 1.07 ± 0.33 |
| AYPVES | 1.19 ± 0.23 |
| LSRIRVHSIRLYSVFPVMFC | 3.67 ± 0.072 |
| NKANLLYSPLLCLMAVHRMY | inactive |
| FIKMAITDRCGMAYS | -0.752 ± 0.53 |

| Substance | amyloid nucleation score |
| --- | --- |
| TLSLSYALLSCVSVIKCPLV | -0.451 ± 0.79 |
| CVKVNWVSV | -0.81 ± 0.76 |
| GIQGLSLYRLLSPALWSPSG | 0.168 ± 0.49 |
| WTDAKALGGLSLLIRWSLEE | 4.13 ± 0.087 |
| SDLANTLEPELQAFVIQ | -0.029 ± 0.61 |
| NSVMIDTDVKFAFFRSET | inactive |
| AVHDGFDRNMAIKGTGGRWW | 3.79 ± 0.098 |
| YSMICGLHCSVLFRGNSEGT | 4.782 ± 0.039 |
| TNLYNDIGDRMFSSNWSTPV | -0.02 ± 1.1 |
| ADLWKLGLRAILELGPL | -0.165 ± 1 |
| SIFSIFWYV | -0.744 ± 0.5 |
| SVNASGT | -0.114 ± 0.8 |
| MIEKVQFQCLVIICRNGVV | 6.565 ± 0.052 |
| VSWAVGQGWTVRSSPRVCGE | 0.267 ± 0.42 |
| VTNSSMQMSSWADPSVKSGM | 0.032 ± 0.32 |
| SVRLNFEFRDYDCRQVLSIF | -0.825 ± 1.1 |
| IRSGIIPVTVGPYHGALYMV | 0.662 ± 0.74 |
| YVPPQWRIVDRNVSY | 0.012 ± 1 |
| AFCLTLTGACLSMSDVARFT | 4.19 ± 0.098 |
| SKLVSYIDWVGSRILRYTCV | -0.801 ± 1.1 |
| MENGHCYFCQCTKSH | 2.85 ± 0.1 |
| VYHLLFSGC | 0.219 ± 0.33 |
